From article PMC10397247
Read-outs that look alike come from different tables or passages of the source. Blank lines part the entries; values can stand above or below the binder they belong to.

How the values were obtained:
O9-bS = molecular target: T1, O9-bS; assay: two-hybrid library CCNG1; settings: mean of both orientations;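 note: natural log of median RNA to DNA barcode read ratio; higher means stronger binding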
T1 chain: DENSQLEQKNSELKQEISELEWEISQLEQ

P8-AA = molecular target: T2, P8-AA; assay: two-hybrid library CCmax;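 note: natural log of median RNA to DNA barcode read ratio; higher means stronger binding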
T2 chain: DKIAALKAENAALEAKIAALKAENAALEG

P9-AA = molecular target: T3, P9-AA; assay: two-hybrid library CCmax; settings: mean of both orientations;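 note: natural log of median RNA to DNA barcode read ratio; higher means stronger binding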
T3 chain: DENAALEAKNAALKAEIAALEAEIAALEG

P7-AA = molecular target: T4, P7-AA; assay: two-hybrid library CCmax;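 note: natural log of median RNA to DNA barcode read ratio; higher means stronger binding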
T4 chain: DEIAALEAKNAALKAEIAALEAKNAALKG

zCON9_B = molecular target: T5, zCON9_B; assay: two-hybrid library CCmax; settings: mean of both orientations;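 note: natural log of median RNA to DNA barcode read ratio; higher means stronger binding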
T5 chain: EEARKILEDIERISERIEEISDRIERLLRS

P3-AA = molecular target: T6, P3-AA; assay: two-hybrid library CCmax; settings: mean of both orientations;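 note: natural log of median RNA to DNA barcode read ratio; higher means stronger binding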
T6 chain: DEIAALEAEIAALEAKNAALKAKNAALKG

P4-AA = molecular target: T7, P4-AA; assay: two-hybrid library CCmax; settings: mean of both orientations
T7 chain: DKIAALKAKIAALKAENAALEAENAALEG

P2-AA = molecular target: T8, P2-AA; assay: two-hybrid library CCmax
T8 chain: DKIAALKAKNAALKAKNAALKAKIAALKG

zCON9_D = molecular target: T9, zCON9_D; assay: two-hybrid library CCmax
T9 chain: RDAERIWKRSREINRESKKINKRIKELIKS

zCON9_A = molecular target: T10, zCON9_A; assay: two-hybrid library CCmax
T10 chain: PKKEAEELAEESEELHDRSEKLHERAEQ

P12-AA = molecular target: T11, P12-AA; assay: two-hybrid library CCmax; settings: mean of both orientations
T11 chain: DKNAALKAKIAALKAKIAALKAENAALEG

P11-AA = molecular target: T12, P11-AA; assay: two-hybrid library CCmax
T12 chain: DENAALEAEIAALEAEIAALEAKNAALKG

4H3817-bN = molecular target: T13, 4H3817-bN; assay: two-hybrid library CCNG1
T13 chain: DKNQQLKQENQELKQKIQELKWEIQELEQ

4H906-bN = molecular target: T14, 4H906-bN; assay: two-hybrid library CCNG1
T14 chain: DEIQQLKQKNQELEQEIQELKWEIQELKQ

4H850-bN = molecular target: T15, 4H850-bN; assay: two-hybrid library CCNG1
T15 chain: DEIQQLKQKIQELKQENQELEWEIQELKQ

4H3858-bN = molecular target: T16, 4H3858-bN; assay: two-hybrid library CCNG1
T16 chain: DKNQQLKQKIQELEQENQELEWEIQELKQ

4H619-bN = molecular target: T17, 4H619-bN; assay: two-hybrid library CCNG1
T17 chain: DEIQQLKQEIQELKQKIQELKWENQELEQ

4H3974-bN = molecular target: T18, 4H3974-bN; assay: two-hybrid library CCNG1
T18 chain: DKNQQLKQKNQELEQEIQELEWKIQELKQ

4H570-bN = molecular target: T19, 4H570-bN; assay: two-hybrid library CCNG1
T19 chain: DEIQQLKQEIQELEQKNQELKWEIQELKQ

4H584-bN = molecular target: T20, 4H584-bN; assay: two-hybrid library CCNG1
T20 chain: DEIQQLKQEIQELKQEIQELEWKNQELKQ

4H687-bN = molecular target: T21, 4H687-bN; assay: two-hybrid library CCNG1
T21 chain: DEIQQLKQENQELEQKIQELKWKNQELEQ

O9-bP = molecular target: T22, O9-bP; assay: two-hybrid library CCNG1
T22 chain: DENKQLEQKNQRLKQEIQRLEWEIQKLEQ

4H591-bN = molecular target: T23, 4H591-bN; assay: two-hybrid library CCNG1
T23 chain: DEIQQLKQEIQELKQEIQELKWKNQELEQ

4H626-bN = molecular target: T24, 4H626-bN; assay: two-hybrid library CCNG1
T24 chain: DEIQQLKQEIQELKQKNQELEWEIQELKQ

4H3628-bN = molecular target: T25, 4H3628-bN; assay: two-hybrid library CCNG1
T25 chain: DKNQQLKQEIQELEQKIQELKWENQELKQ

4H3926-bN = molecular target: T26, 4H3926-bN; assay: two-hybrid library CCNG1
T26 chain: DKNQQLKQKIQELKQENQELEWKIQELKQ

B1: O9-bS (peptide)
chain: DENSQLEQKNSELKQEISELEWEISQLEQ
interaction score (O9-bS): -1.16

B3: P11-AA (peptide)
chain: DENAALEAEIAALEAEIAALEAKNAALKG
interaction score (P8-AA; mean of both orientations): -1.23
interaction score (P9-AA): -1.18
interaction score (P7-AA; mean of both orientations): -1.07
interaction score (zCON9_B): -0.891
interaction score (P3-AA): -1.5
interaction score (P4-AA): 1.68
interaction score (P2-AA; mean of both orientations): 0.243
interaction score (zCON9_D): -1.93
interaction score (P12-AA): 1.97
interaction score (P11-AA): -1.19
interaction score (zCON9_A): -1.48

B6: P7-AA (peptide)
chain: DEIAALEAKNAALKAEIAALEAKNAALKG
interaction score (P8-AA; mean of both orientations): 1.87
interaction score (P9-AA): -1.14
interaction score (P7-AA): -1.79
interaction score (zCON9_B): -1.46
interaction score (zCON9_D): -1.95
interaction score (zCON9_A): -1.78

B7: P8-AA (peptide)
chain: DKIAALKAENAALEAKIAALKAENAALEG
interaction score (P8-AA): -1.57
interaction score (P9-AA): -0.207
interaction score (zCON9_B): -1.66
interaction score (zCON9_D; mean of both orientations): -1.98
interaction score (zCON9_A): -1.74

Continued, values first:

interaction score (P8-AA; mean of both orientations): -1.37
interaction score (P9-AA): -0.716
interaction score (P7-AA; mean of both orientations): -1.47
interaction score (zCON9_B): 1.28
interaction score (P3-AA): -1.6
interaction score (P4-AA): -0.357
interaction score (P2-AA): -0.878
interaction score (zCON9_D; mean of both orientations): -2.05
interaction score (zCON9_A; mean of both orientations): -1.98
B2: P2-AA (peptide)
chain: DKIAALKAKNAALKAKNAALKAKIAALKG

interaction score (4H3817-bN): -0.754
interaction score (4H906-bN): -1.83
interaction score (4H850-bN): -0.947
interaction score (4H3858-bN): -0.555
interaction score (4H619-bN): -0.743
interaction score (4H3974-bN): -0.487
interaction score (4H570-bN): -1.92
interaction score (4H584-bN): -2.15
B4: 4H3817-bN (peptide)
chain: DKNQQLKQENQELKQKIQELKWEIQELEQ

interaction score (4H3817-bN): -1.03
interaction score (4H906-bN): 0.069
interaction score (4H687-bN): -0.529
interaction score (O9-bP): -0.345
interaction score (4H591-bN): -0.603
interaction score (4H850-bN): -1.18
interaction score (4H3858-bN): -2.07
interaction score (4H3974-bN): -0.134
interaction score (4H570-bN): -1.33
interaction score (4H626-bN): -2.08
interaction score (4H3628-bN): -0.36
interaction score (4H3926-bN): -0.307
B5: 4H3628-bN (peptide)
chain: DKNQQLKQEIQELEQKIQELKWENQELKQ
